Assay results published in PMC7759300 (The Journal of Cell Biology, 2020).

Key:
[1] = molecular target: SAS-6 (UniProt Q6UVJ0); assay: GFP-Trap co-IP, SAS-6 blot; conditions: reference: wild type; sites S325
[2] = molecular target: SAS-6 (UniProt Q6UVJ0); assay: GFP-Trap co-IP, SAS-6 blot; conditions: reference: wild type; sites S325; remark: listed apart in the source
[3] = molecular target: Strep-NEDD1 (human, UniProt Q8NHV4 1-660); assay: pull-down
Strep-NEDD1, sequence (Q8NHV4 whole entry): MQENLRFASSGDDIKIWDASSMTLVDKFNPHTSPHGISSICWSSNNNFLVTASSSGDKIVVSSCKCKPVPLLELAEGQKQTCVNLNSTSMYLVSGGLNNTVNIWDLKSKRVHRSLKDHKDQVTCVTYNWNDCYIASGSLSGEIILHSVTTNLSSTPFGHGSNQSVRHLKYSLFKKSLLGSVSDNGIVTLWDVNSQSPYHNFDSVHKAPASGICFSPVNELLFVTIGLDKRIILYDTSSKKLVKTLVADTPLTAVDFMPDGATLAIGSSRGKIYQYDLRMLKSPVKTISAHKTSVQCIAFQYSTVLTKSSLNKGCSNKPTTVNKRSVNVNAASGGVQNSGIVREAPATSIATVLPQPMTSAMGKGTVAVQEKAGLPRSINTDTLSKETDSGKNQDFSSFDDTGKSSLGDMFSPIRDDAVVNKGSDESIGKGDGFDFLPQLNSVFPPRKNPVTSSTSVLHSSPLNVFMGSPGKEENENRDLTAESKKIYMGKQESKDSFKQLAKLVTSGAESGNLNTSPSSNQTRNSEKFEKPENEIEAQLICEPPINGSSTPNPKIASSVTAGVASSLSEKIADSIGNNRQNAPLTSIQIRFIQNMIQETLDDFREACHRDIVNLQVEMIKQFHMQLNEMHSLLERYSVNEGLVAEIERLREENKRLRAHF

Molecule | binding against the reference [1] | binding against the reference [2] | binding result [3]
NEDD1 (from UniProt Q8NHV4) S325A | weaker | weaker | –
GFP-SAS-6-Strep (natural protein) MSQVLFHQLVPLQVKCKDCEERRVSIRMSIELQSVSNPVHRKDLVIRLTDDTDPFFLYNLVISEEDFQSLKFQQGLLVDFLAFPQKFIDLLQQCTQEHAKEIPRFLLQLVSPAAILDNSPAFLNVVETNPFKHLTHLSLKLLPGNDVEIKKFLAGCLKCSKEEKLSLMQSLDDATKQLDFTRKTLAEKKQELDKLRNEWASHTAALTNKHSQELTNEKEKALQAQVQYQQQHEQQKKDLEILHQQNIHQLQNRLSELEAANKDLTERKYKGDSTIRELKAKLSGVEEELQRTKQEVLSLRRENSTLDVECHEKEKHVNQLQTKVAVLEQEIKDKDQLVLRTKEAFDTIQEQKVVLEENGEKNQVQLGKLEATIKSLSAELLKANEIIKKLQGDLKTLMGKLKLKNTVTIQQEKLLAEKEEKLQKEQKELQDVGQSLRIKEQEVCKLQEQLEATVKKLEESKQLLKNNEKLITWLNKELNENQLVRKQDVLGPSTTPPAHSSSNTIRSGISPNLNVVDGRLTYPTCGIGYPVSSAFAFQNTFPHSISAKNTSHPGSGTKVQFNLQFTKPNASLGDVQSGATISMPCSTDKENGENVGLESKYLKKREDSIPLRGLSQNLFSNSDHQRDGTLGALHTSSKPTALPSASSAYFPGQLPNS | – | – | binds
